Literature values, collected in publication PMC10359924.
pKd: −log10 of the molar value. Read-outs that look alike come from different tables or passages of the source.

Columns and labels:
IL-4Rα (Homo sapiens) [1] = target: IL-4Rα (Homo sapiens) (UniProt P24394)
IL-13Rα1 (Homo sapiens) [2] = target: IL-13Rα1 (Homo sapiens) (UniProt P78552)
γc (Homo sapiens) = γc (Homo sapiens) (UniProt P31785)
IL-13Rα1 (Homo sapiens) [3] = target: IL-13Rα1 (Homo sapiens) (UniProt P78552); remark: listed apart in the source
IL-4Rα (Homo sapiens) [4] = target: IL-4Rα (Homo sapiens) (UniProt P24394); remark: listed apart in the source

Chain of IL-4/IL-4Rα complex (P05112 25-153): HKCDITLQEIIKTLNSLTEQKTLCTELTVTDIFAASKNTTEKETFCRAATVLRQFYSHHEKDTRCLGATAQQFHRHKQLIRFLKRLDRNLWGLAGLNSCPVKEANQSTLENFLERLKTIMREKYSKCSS
Chain of IL-4/IL-4Rα complex (P24394 26-232, further chain): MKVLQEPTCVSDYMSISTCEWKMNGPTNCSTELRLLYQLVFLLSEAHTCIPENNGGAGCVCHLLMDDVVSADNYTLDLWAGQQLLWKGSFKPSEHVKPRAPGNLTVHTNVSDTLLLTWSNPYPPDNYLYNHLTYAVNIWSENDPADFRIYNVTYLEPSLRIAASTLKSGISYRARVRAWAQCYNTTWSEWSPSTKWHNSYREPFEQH
Chain of IL-13Rα1 (Homo sapiens) (P78552 22-343): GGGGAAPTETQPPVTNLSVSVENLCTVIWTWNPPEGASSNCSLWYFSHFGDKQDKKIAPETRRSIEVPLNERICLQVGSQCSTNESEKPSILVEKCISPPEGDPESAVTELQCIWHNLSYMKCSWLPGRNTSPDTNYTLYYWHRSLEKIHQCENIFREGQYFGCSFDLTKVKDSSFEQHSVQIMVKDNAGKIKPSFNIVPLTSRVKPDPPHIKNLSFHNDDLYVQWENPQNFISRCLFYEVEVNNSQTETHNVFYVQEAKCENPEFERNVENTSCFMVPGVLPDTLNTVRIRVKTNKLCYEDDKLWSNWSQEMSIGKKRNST
Chain of IL-4Rα (Homo sapiens) (P24394 26-232): as the sequence (P24394 26-232, further chain) above
Chain of IL-4 (P05112 25-153): as the sequence (P05112 25-153) above
Chain of γc (Homo sapiens) (P31785 23-262): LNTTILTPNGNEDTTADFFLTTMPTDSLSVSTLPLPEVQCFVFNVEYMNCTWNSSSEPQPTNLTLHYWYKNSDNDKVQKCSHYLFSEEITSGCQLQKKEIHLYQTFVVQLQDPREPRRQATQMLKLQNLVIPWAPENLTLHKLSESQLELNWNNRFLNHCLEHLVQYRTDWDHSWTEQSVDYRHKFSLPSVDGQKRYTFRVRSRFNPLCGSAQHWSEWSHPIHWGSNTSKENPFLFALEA
Chain of IL-13 (P35225 25-146): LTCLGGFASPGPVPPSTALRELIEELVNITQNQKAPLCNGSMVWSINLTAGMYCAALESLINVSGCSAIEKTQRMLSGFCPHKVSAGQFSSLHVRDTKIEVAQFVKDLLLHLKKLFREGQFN
Chain of IL-13/IL-13Rα1 complex (P35225 25-146): as above
Chain of IL-13/IL-13Rα1 complex (P78552 22-343, further chain): as the sequence (P78552 22-343) above

Substance: IL-13/IL-13Rα1 complex (from UniProt P35225)
- pKd (IL-4Rα (Homo sapiens) [1]): 7.70

Substance: IL-4/IL-4Rα complex (from UniProt P05112)
- pKd (IL-13Rα1 (Homo sapiens) [2]): 6.31
- pKd (γc (Homo sapiens)): 6.25

Substance: IL-13 (from UniProt P35225)
- pKd (IL-13Rα1 (Homo sapiens) [3]): 7.52

Substance: IL-4 (from UniProt P05112)
- pKd (IL-4Rα (Homo sapiens) [4]): 9.00
